From PMC10516938, “Conformational dynamics of cohesin/Scc2 loading complex are regulated by Smc3 acetylation and ATP binding” (Nature Communications, 2023)

Molecular target: T1, Smc3^QQ W483R R1008I K1004C (S. cerevisiae, UniProt P47037 1-1230, K112Q | K113Q | W483R | K1004C | R1008I)
T1 construct: Smc3, S. cerevisiae; also called smc3-QQ K1004C with R1008I and W483R; source: S. cerevisiae W303, late G1 arrested cells, whole-cell extract
T1 sequence (looked up): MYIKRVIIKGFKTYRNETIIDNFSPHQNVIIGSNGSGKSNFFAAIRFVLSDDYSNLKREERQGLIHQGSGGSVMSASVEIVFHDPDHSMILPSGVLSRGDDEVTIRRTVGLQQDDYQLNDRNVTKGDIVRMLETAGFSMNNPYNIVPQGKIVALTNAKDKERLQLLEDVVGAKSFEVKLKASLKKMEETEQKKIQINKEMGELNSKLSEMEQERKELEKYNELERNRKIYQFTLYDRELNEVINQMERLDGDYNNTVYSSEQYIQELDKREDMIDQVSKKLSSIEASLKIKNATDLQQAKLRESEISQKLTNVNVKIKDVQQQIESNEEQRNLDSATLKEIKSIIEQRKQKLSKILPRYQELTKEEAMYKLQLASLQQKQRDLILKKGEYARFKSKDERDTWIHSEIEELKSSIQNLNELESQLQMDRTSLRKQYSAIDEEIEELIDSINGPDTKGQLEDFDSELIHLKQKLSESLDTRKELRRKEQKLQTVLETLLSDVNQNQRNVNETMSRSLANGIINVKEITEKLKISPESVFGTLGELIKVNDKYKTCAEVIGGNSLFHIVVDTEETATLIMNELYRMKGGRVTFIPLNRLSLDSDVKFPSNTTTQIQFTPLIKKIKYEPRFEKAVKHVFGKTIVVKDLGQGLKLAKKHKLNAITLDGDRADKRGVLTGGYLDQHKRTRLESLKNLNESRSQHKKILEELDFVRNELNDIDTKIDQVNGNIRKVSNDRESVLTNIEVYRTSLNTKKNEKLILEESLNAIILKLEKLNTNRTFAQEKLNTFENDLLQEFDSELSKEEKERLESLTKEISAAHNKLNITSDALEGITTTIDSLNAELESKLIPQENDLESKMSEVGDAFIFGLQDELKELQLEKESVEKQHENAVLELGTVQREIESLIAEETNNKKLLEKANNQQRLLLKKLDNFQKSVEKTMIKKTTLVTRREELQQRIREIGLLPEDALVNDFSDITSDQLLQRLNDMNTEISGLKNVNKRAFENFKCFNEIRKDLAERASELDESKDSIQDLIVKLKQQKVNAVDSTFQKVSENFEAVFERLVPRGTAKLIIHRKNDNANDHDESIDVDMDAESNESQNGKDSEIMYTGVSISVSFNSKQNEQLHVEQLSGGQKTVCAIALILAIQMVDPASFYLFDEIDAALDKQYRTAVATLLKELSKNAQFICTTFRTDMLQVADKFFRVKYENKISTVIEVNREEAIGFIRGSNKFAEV
Assay: cross-linking; in vivo BMOE cross-link of cysteine pairs in yeast cells arrested in late G1 by non-degradable Sic1(9m); Scc1-PK immunoprecipitated, western blot, band intensities quantified
Conditions: partners not purified

B1: Scc2 D369C (natural protein, S. cerevisiae, UniProt Q04002 1-1493, looked up)
chain: MSYPGKDKNIPGRIIEALEDLPLSYLVPKDGLAALVNAPMRVSLPFDKTIFTSADDGRDVNINVLGTANSTTSSIKNEAEKERLVFKRPSNFTSSANSVDYVPTNFLEGLSPLAQSVLSTHKGLNDSINIEKKSEIVSRPEAKHKLESVTSNAGNLSFNDNSSNKKTKTSTGVTMTQANLAEQYLNDLKNILDIVGFDQNSAEIGNIEYWLQLPNKKFVLTTNCLTKLQMTIKNITDNPQLSNSIEITWLLRLLDVMVCNIKFSKSSLKMGLDDSMLRYIALLSTIVLFNIFLLGKNDSNLHRESYIMEPVNFLSDLIESLKILTIEYGSLKIEFDTFQEALELLPKYIRNGPFLDDNVTAKLVYIFSCLLMNNDIEATTNIQFQSFWDNVKRISSDILVSLFGSFDQQRGFIIEELLSHIEKLPTKRIQKKLRKVGNQNIYITDFTFTLMSMLENINCYSFCNQMKDIAPENIDLLKNEYKKQEEFLFNIVEHINDTILERFFKNPSALRYVIDNFVQDLLLLISSPQWPVTEKILSSLLKRLLSVYSPSMQVSANIETICLQLIGNIGSTIFDIKCSTRDHEDNNLIKMINYPETLPHFFKSFEECIAYNETIKCRRSATRFLWNLRLGTILILEEYTKDAKEQIITVDNELKKILEQIKDGGLGPELENREADFSTIKLDYFSILHAFELLNLYDPYLKLILSLLAKDKIKLRSTAIKCLSMLASKDKVILSNPMVKETIHRRLNDSSASVKDAILDLVSINSSYFEFYQQINNNYNDDSIMVRKHVLRINEKMYDETNDIVTKVYVIARILMKIEDEEDNIIDMARLILLNRWILKVHEVLDQPEKLKEISSSVLLVMSRVAIMNEKCSQLFDLFLNFYLLNKEAHSKEAYDKITHVLTILTDFLVQKIVELNSDDTNEKNSIVDKQNFLNLLAKFADSTVSFLTKDHITALYPYMVSDEKSDFHYYILQVFRCTFEKLANFKQKFLYDLETTLLSRLPKMNVREIDEAMPLIWSVATHRHDTARVAKACSSCLSHLHPYINKANNEEAAIVVDGKLQRLIYLSTGFARFCFPKPSNDKIAFLQEGETLYEHITKCLLVLSKDKITHVIRRVAVKNLTKLCGNHPKLFNSRHVLHLLDKEFQSDQLDIKLVILESLYDLFLLEERKSVRNTGVNSTLSSNSILKKKLLKTNRVEFANDGVCSALATRFLDNILQLCLLRDLKNSLVAIRLLKLILKFGYTNPSHSIPTVIALFASTSQYIRHVAYELLEDLFEKYETLVFSSLSRGVTKAIHYSIHTDEKYYYKHDHFLSLLEKLCGTGKKNGPKFFKVLKRIMQSYLDDITDLTSTNSSVQKSIFVLCTNISNITFVSQYDLVSLLKTIDLTTDRLKEVIMDEIGDNVSSLSVSEEKLSGIILIQLSLQDLGTYLLHLYGLRDDVLLLDIVEESELKNKQLPAKKPDISKFSAQLENIEQYSSNGKLLTYFRKHVKDT
notes: Scc2, S. cerevisiae; source: S. cerevisiae W303, in vivo, whole-cell extract
  crosslink relative to wild type: ~70%
